Measurements published in patent US20230151089A1 (SYNGLE THERAPEUTICS B V, published 2023).

Experiments:
[1] = molecular target: T1, alpha-synuclein oligomers (UniProt P37840 1-140); assay: ELISA, alpha-Syn oligomer coated plate
[2] = molecular target: T1, alpha-synuclein oligomers; assay: ELISA, read from the graph, reference alpha-Syn monomer
[3] = molecular target: T1, alpha-synuclein oligomers; assay: ELISA on alpha-Syn oligomer coat; half of the highest OD 450 nm, drawn table
[4] = molecular target: T1, alpha-synuclein oligomers; assay: ELISA on alpha-Syn oligomer coat; row 'Titre (nM)' of the drawn table, concentration at DO (50%)
[5] = molecular target: T1, alpha-synuclein oligomers; assay: ELISA, alpha-Syn oligomer coated plate, exp 1
Protocol: (§1) Binding affinities (EC50 values) towards different antigens were determined from ELISA experiments using antigen coated plates as follows. Absorbance data was corrected for background absorption obtained by incubating antigen coated plates without adding primary antibody but keeping all other parameters constant. The background corrected absorbance values were then plotted against the log value of the antibody concentration.
(§2) The curve was fitted using the Graphpad Prism software using the common binding function Abs450=Max/(1+10\hat{ }(([Log EC50−Log Ab]))) where “Abs450” is the background corrected experimental absorption, “Max” is the absorption upon complete binding saturation, “Log EC50” is the log of the EC50 value and “Log Ab” is the log of the antibody concentration.

[6] = molecular target: T1, alpha-synuclein oligomers; assay: ELISA, alpha-Syn oligomer coated plate, exp 2
Protocol: as §1, §2

[7] = molecular target: T1, alpha-synuclein oligomers; assay: ELISA, alpha-Syn oligomer coated plate, exp 3
Protocol: as §1, §2

[8] = molecular target: T1, alpha-synuclein oligomers; assay: ELISA, ratio of EC50 values, reference alpha-Syn fibrils
Protocol: as §1, §2

[9] = molecular target: T1, alpha-synuclein oligomers; assay: ELISA, ratio of binding affinities, reference alpha-Syn fibrils (FIG. 3)
Protocol: as §1, §2

[10] = molecular target: T1, alpha-synuclein oligomers; assay: ELISA on antigen-coated plate, antibody titrated in tenfold steps, OD 450-630 nm
Protocol: as §1, §2

[11] = molecular target: T1, alpha-synuclein oligomers; assay: ELISA on plates coated with ASO, ABO, AB fibrils, TAU oligo, TAU fibrils or no coat; antibody titrated, OD 450 nm

Binder	EC50 [1] [nM]	specificity ratio of alpha-Syn oligomer compared to alpha-Syn monomer [2]	DO (50%) [3]	EC50 [4] [nM]	EC50 [5] [nM]	EC50 [6] [nM]	EC50 [7] [nM]	fold preference over alpha-Syn fibrils [8] [fold]	binding affinity ratio alpha-Syn oligomers:alpha-Syn fibrils [9] [fold]	EC50 (read off the curve) [10] [pM]	EC50 (read off the curve) [11] [µg/mL]
26F1 TaFv (tandem single-chain variable fragment) (scFv) scFv: DVQLQESGPGLVKPSQSLSLTCTVTGYSITSDYAWNWIRQFPGNKLEWLGYISYSGNTYYNPSLKSRISITRDTSKNQFFLHLNSVTTEDTATYYCAGNYVRWGQGTLVTVSAGGGGSGGGGSGGGGSDVVMTQTPLTLSVTIGQPASISCKSSQSLLYTNGKTYLNWLLQRPGQSPKRLIYLVSKLDSGVPDRFSGSGSGTDFTLKISRVEAEDLGVYYCLQSSHFPHTFGSGTKLEIKGGGGSDVQLQESGPGLVKPSQSLSLTCTVTGYSITSDYAWNWIRQFPGNKLEWLGYISYSGNTYYNPSLKSRISITRDTSKNQFFLHLNSVTTEDTATYYCAGNYVRWGQGTLVTVSAGGGGSGGGGSGGGGSDVVMTQTPLTLSVTIGQPASISCKSSQSLLYTNGKTYLNWLLQRPGQSPKRLIYLVSKLDSGVPDRFSGSGSGTDFTLKISRVEAEDLGVYYCLQSSHFPHTFGSGTKLEIK	~2	≥ 100	0.904	2.03							
antibody 26F1 (antibody, mouse IgG2a, kappa, V domains shown, Mouse monoclonal; Isotype is said to be preferably IgG2a kappa; also called 26F1 antibody; IgG 26F1) VH: DVQLQESGPGLVKPSQSLSLTCTVTGYSITSDYAWNWIRQFPGNKLEWLGYISYSGNTYYNPSLKSRISITRDTSKNQFFLHLNSVTTEDTATYYCAGNYVRWGQGTLVTVSA VL: not shown			1.31	0.0966	0.039	0.027	0.09	20	≥ 20	~200	~0.01
26F1 scFv (single-chain variable fragment) (scFv) scFv: DVQLQESGPGLVKPSQSLSLTCTVTGYSITSDYAWNWIRQFPGNKLEWLGYISYSGNTYYNPSLKSRISITRDTSKNQFFLHLNSVTTEDTATYYCAGNYVRWGQGTLVTVSAGGGGSGGGGSGGGGSDVVMTQTPLTLSVTIGQPASISCKSSQSLLYTNGKTYLNWLLQRPGQSPKRLIYLVSKLDSGVPDRFSGSGSGTDFTLKISRVEAEDLGVYYCLQSSHFPHTFGSGTKLEIK	~3.7	≥ 100	0.744	3.66							
